Experimental data: patent US20170204167A1 (INSTITUTE FOR RESEARCH IN BIOMEDICINE, published 2017)

B1: FI6 variant 3 (antibody, V domains shown)
VH: QVQLVESGGGVVQPGRSLRLSCAASGFTFSTYAMHWVRQAPGKGLEWVAVISYDANYKYYADSVKGRFTISRDNSKNTLYLQMNSLRAEDTAVYYCAKDSQLRSLLYFEWLSQGYFDYWGQGTLVTVSS
VL: not shown
B2: FI6 variant 2 (antibody, V domains shown)
VH: QVQLVQSGGGVVQPGRSLRLSCVASGFTFSTYAMHWVRQAPGRGLEWVAVISYDGNYKYYADSVKGRFSISRDNSNNTLHLEMNTLRTEDTALYYCAKDSQLRSLLYFEWLSQGYFDPWGQGTLVTVTS
VL: DIQMTQSPDSLAVSLGARATINCKSSQSVTFNYKNYLAWYQQKPGQPPKVLIYWASARESGVPDRFSGSGSGTDFTLTISSLQAEDVAVYYCQQHYRTPPTFGQGTKVEIK
B3: FI28 variant 1 (antibody, V domains shown)
VH: EVQLVESGGGAVQPGESLKLSCAASGFTFSNYGMHWVRQAPGKGLEWVAVISYDGSNKYYADSVKGRFTISRDNSKDTLYLQMNSLRAEDTALFYCAKERPLRLLRYFDWLSGGANDYWGQGTLVTVSS
VL: DIVMTQSPDSLAVSLGERATINCKSSQSVLYSSNNKNYLAWYQQKPGQPPKLLIDWASTRESGVPDRFSGSGSGTDFTLTISNLQVEDVAVYYCQQYYRSPSFGQGTKLEIK

Key:
[1] = target: T1, HA of H1N1 A/Solomon Islands/3/06 (influenza A virus H1N1 A/Solomon …); test: ELISA on recombinant or purified HA
[2] = target: T2, HA of H1N1 A/New Caledonia/20/99 (influenza A virus H1N1 A/New …); test: ELISA on recombinant or purified HA
HA of H3N2 A/WI/67/05 = HA of H3N2 A/WI/67/05 (influenza A virus H3N2 A/WI/67/05); test: cell-based or functional assay
[3] = target: T1, HA of H1N1 A/Solomon Islands/3/06; test: cell-based or functional assay
[4] = target: T2, HA of H1N1 A/New Caledonia/20/99; test: cell-based or functional assay
HA of H3N2 A/CA/7/04 = HA of H3N2 A/CA/7/04 (influenza A virus H3N2 A/CA/7/04); test: cell-based or functional assay

Binder	EC50 [1] [µg/mL]	EC50 [2] [µg/mL]	Neutralization of infectious viruses (IC50, µg/ml) (HA of H3N2 A/WI/67/05) [µg/mL]	Neutralization of infectious viruses (IC50, µg/ml) [3] [µg/mL]	Neutralization of infectious viruses (IC50, µg/ml) [4] [µg/mL]	Neutralization of infectious viruses (IC50, µg/ml) (HA of H3N2 A/CA/7/04) [µg/mL]
B1	0.019	0.017	–	–	–	–
B2	0.018	0.015	12.5	8.8	6.3	7.9
B3	–	–	> 100	> 100	> 100	> 100
